The target of test [1] is PpNAGK, recombinant mature N-acetylglutamate kinase (301 residues without cTP) fused to a His-tag (Pinus pinaster (maritime pine)).
Test [2] addresses PpPIIb, recombinant mature protein (without the chloroplast transit peptide) (Pinus pinaster (maritime pine)). The test is described as follows: SEC; ENrich SEC 650 10 x 300 column (FPLC), 250 uL of protein at 0.6 ug/uL in 25 mM Tris-HCl pH 7.5, 150 mM NaCl, 10% glycerol, room temperature, 0.75 mL/min; calibrated with protein standards; fractions checked by western blot.
Test [3] has as its target PpPIIa, recombinant mature protein (without the chloroplast transit peptide) (Pinus pinaster (maritime pine)). Described as above.

2 substances from article PMC7308587 can be followed below.

With “PpPIIb, recombinant mature protein (without the chloroplast transit peptide) (natural protein)”, in test [1], the PpNAGK enzyme activity (N-acetylglutamylhydroxamate assay) with increasing amounts of PpPIIb mixed with 0.65 ug PpNAGK amounted to 5 fold. In addition, the stoichiometry N in test [2] worked out at 3.

As to “PpPIIa, recombinant mature protein (without the chloroplast transit peptide) (natural protein)”, the PpNAGK enzyme activity (N-acetylglutamylhydroxamate assay) with increasing amounts of PpPIIa mixed with 0.65 ug PpNAGK in test [1] came to 5 fold. Further, the stoichiometry N in test [3] is 3.

Broadly, the stoichiometry N is a count of units in the complex or per binding partner.
